Assay results: the RNAGym collection of RNA variant scans (doi:10.7554/elife.80360)

B1: HDV Ribozyme (parent)
chain: GGCCGGCAUGGUCCCAGCCUCCUCGCUGGCGCCGGCUGGGCAACAUUCCGAGGGGACCGUCCCCUCGGUAAUGGCGAAUGGGACCCA

Variants of: B1
Test: self-cleavage, relative activity (ratio to wild type); higher = more cleavage; co-transcriptional

Variant	self-cleavage
U65C U79A	0.644
G68C G76C	1.03
G68C G76U	1.23
G67U G80C	0.128
G67U G80A	0.355
G67A G82U	0.348
G67A G82A	0.285
G67A U69G	0.776
G67A U69C	0.927
G67A U69A	1
G67C A71C	0.657
G67C C85G	0.96
G67C C85A	0.7
C66G U69G	1.18
C66G U69A	0.917
G67A U72G	0.383
G67A A71U	0.725
G67U A70G	1.16
G67U A70U	0.812
G68U C86U	1.05
G68U C86A	0.956
U69A A77U	0.591
U65G	0.988
C66G G73U	0.389

Variant	self-cleavage
C66G G73A	0.434
G68C A70C	0.63
G68C A70G	0.639
C66A C84U	0.696
C66A C84A	0.831
G68A U72C	0.594
G68A U72G	0.312
U69A A83G	0.712
C66U G80C	0.153
C66U G80A	0.475
U65G G74C	0.309
U65G G74U	0.424
C66U G68A	0.92
C66U G68C	0.753
C66U G68U	0.935
G67C C84A	0.682
C66A G74U	0.739
C66A G74C	0.293
C66A G74A	0.519
C66A G82A	0.356
U65G G82C	0.133
G67C G82A	0.108
G67C G82U	0.185
G67C G82C	0.289

Variant	self-cleavage
C66U G73A	0.66
C66U G73C	0.528
C66U G73U	0.284
G68U G73A	0.481
G68A G82C	0.153
U65C U72G	0.831
C66G U79A	0.808
G68A C86A	0.822
G68A C86U	0.965
C66U A83U	0.43
C66A U79G	0.804
G67A G73A	0.492
G68U U79C	0.415
G67U A71C	0.892
G67U A71G	1.12
G67C G81C	0.286
G67C G81A	0.369
G67C G81U	0.157
G67A G81U	0.101
G67A G81C	0.117
G68U C84G	0.525
U65C U69G	1.03
U65C U69A	0.989
G67U G73U	0.263

Variant	self-cleavage
G67U G73A	0.451
U69A C84U	0.639
U69A C84A	0.935
G68A A83U	0.424
G67C G73A	0.327
G67C G73C	0.212
C66G A83C	0.178
G68C C75A	0.0346
G68C C75G	0.128
G67C A70C	0.655
G67C A70U	0.851
C66G U72G	0.266
C66G U72A	0.587
C66G U72C	0.453
G67C G80C	0.189
G67C G80A	0.464
G67C G80U	0.223
G67U C84A	0.746
G67U C84G	0.609
G68C G74C	0.181
C66A G80U	0.304
C66A G80A	0.54
G67U U69C	0.906
G67U U69G	1.03

Variant	self-cleavage
U65C G80U	0.106
G68C G82A	0.237
G68C G82U	0.352
G67A A87G	0.936
C66G A77U	0.597
C66U A87U	1.23
U69A A70U	0.95
G68U A70C	0.582
G68U A70U	0.849
U65G U79A	0.306
U65G U79G	1.2
U65G C84G	0.569
U65G C84U	0.704
G68U G82U	0.265
G68U G82A	0.153
G67C A83U	0.469
G68A U79C	0.233
C66U G76U	0.936
C66U G76C	0.965
C66U G76A	0.86
G68A C85A	0.831
C66U C75A	0.176
C66U C75G	0.141
C66U C75U	0.173

Variant	self-cleavage
U69A A87C	1.01
U69A A87G	0.99
U65G U69G	0.942
U65G U69A	1.23
C66A C86A	0.769
C66A C86U	0.9
G67C G68U	0.847
G67C G68A	0.955
G67C G68C	0.566
G67A C86G	0.895
G67A C86U	0.845
G67A C86A	0.985
G68U A78U	0.237
G68U A78G	0.639
C66G G68A	0.695
G68C C86G	1.07
G68C C86U	0.997
G68C C86A	1.1
G67A A70U	0.776
G67A A70C	0.475
G67U C86G	0.945
G67U C86U	0.933
G68C G81C	0.0594
U65G A77C	0.356

Variant	self-cleavage
G67U G76C	1.1
G67U G76U	1.08
G67U G76A	1.18
C66G G74A	0.471
C66G G74U	0.396
C66A G67C	0.845
C66A G67U	0.878
C66A G81A	0.354
C66A G81C	0.163
G67C C86G	0.933
G67C U79C	0.305
G67C U79G	0.435
G67C U79A	0.935
C66U C85A	1
U65G U72C	0.415
U65G U72A	0.739
G68U C75G	0.228
G68U C75U	0.225
C66U C86A	0.905
G67A C75A	0.185
G67A C75U	0.189
G68A G81A	0.389
G68A G81C	0.175
